Source: patent US20200109211A1 (ELSALYS BIOTECH, published 2020)

Assays:
[1] = biological target: T1, recombinant human CD160 protein, soluble form, with a C-terminal tag of 6 histidine residues (R&D SYSTEMS) (human, UniProt O95971 27-159, limits assumed, biotinylated with EZ-Link sulfo-NHS-LC-biotin for BLI and ELISA; not biotinylated when immobilised on the CM5 chip for SPR); assay: BLI
T1 construct: domain: soluble form; Bought protein; also called hCD160-his; biotinylated CD160
T1 sequence: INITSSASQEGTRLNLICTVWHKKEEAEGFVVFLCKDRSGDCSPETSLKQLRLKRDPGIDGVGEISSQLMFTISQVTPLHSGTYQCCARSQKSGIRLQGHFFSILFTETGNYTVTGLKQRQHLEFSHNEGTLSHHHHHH

[2] = biological target: T1, recombinant human CD160 protein, …; assay: BLI (repeats Table 7)
[3] = biological target: T2, human CD160 (CD160 GPI isoform) on cells (human, UniProt O95971 25-159, GPI anchor); assay: flow cytometry on CHO-hCD160 transfectants
T2 construct: whole, on cells; Used for all cells said to carry human CD160: transfected CHO-S and E300 cells and cells that carry it naturally (YT2C2, blood NK, CD8+ T, T CD4, CLL cells); also called hCD160; CHO-S-hCD160 (clone 2G10)
T2 sequence (looked up): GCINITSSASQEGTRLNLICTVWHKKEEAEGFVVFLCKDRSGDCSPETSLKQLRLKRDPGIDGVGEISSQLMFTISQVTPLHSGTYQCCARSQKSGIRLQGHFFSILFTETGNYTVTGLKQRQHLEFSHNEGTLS
Summary of the method: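 Recombinant CHO-S-hCD160 cells (clone 2G10) and non-transfected CHO-S cells (5×10^5) were labelled with 2 μg of each antibody or matching isotype control. Binding was read by flow cytometry as median fluorescence index.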

[4] = biological target: T1, recombinant human CD160 protein, …; assay: SPR (Biacore), design close to Example 2
[5] = biological target: T1, recombinant human CD160 protein, …; assay: BLI, biotinylated CD160 at 10 nM on streptavidin sensor, antibody 3.13-100 nM
Experimental: The dissociation constants and the association (kₒₙ) and dissociation (kdis) rate constants for each antibody were calculated by applying a 1:1 interaction model, with overall mathematical modelling of curves (fit) (Rmax bound by the sensor) on the ForteBio 9.0 data analysis software.

[6] = biological target: T2, human CD160 (CD160 GPI isoform) on cells; assay: flow cytometry, percentage of labelled YT2C2 NK cells, antibody 0.39-50 nM; the text means better binding
Experimental: (§1) The binding capacity of the anti-CD160 H7 antibody and of the H7 D12 variant in the IgG4, Fab and Fab-linker Fab format was evaluated during the labelling of surface CD160 expressed naturally on a clone of NK cell line (YT2C2), by measuring the percentage of cell labelled=percentage of binding (see FIG. 1C). For this, 2×10⁺⁵ YT2C2 cells were labelled with increasing concentration of antibodies (from 50 nM to 0.39 nM) and also with the appropriate control isotype. […] In FIG. 1C, IgG4 variants ELB01103 and ELB01104 bind more efficiently to the YT2C2 cells than the H7 IgG4 ELB01101 (which results in a EC₅₀ increased by a factor of 10 compared with H7 IgG4). This is also true for the Fab-linker-Fab format ELB01132. By contrast Fab format ELB01122 bind less efficiently to the YT2C2 cells than the H7 IgG4 ELB01101 (which results in a EC₅₀ decreased by a factor of 2 compared with H7 IgG4). This is certainly due to the monovalency of the Fab format.

[7] = biological target: T2, human CD160 (CD160 GPI isoform) on cells; assay: flow cytometry, percentage of labelled YT2C2 NK cells (2x10^5 cells), antibody 0.39 to 50 nM [panel C]
Experimental: as §1

- Gain in KD/respective IgG [1]: 1.7 fold
- Kd [2]: 1.52 nM
- koff [2]: 0.000752 s⁻¹
- kon [2]: 494000 M⁻¹ s⁻¹
- median fluorescence, factor against H7 IgG4 ELB01101 [3]: 2 fold
- Gain in KD/respective IgG [4]: 3.1 fold
- Kd [4]: 4.2 nM
- koff [4]: 0.00122 s⁻¹
- kon [4]: 292000 M⁻¹ s⁻¹
- Kd [5]: 1.52 nM
- koff [5]: 0.000752 s⁻¹
- kon [5]: 494000 M⁻¹ s⁻¹
- EC50, factor against H7 IgG4 (ELB01101) [6]: 10 fold
- EC50 (read off the curve) [7]: ~3 nM
B1: D12 IgG4 S228P/R409K (antibody)
heavy: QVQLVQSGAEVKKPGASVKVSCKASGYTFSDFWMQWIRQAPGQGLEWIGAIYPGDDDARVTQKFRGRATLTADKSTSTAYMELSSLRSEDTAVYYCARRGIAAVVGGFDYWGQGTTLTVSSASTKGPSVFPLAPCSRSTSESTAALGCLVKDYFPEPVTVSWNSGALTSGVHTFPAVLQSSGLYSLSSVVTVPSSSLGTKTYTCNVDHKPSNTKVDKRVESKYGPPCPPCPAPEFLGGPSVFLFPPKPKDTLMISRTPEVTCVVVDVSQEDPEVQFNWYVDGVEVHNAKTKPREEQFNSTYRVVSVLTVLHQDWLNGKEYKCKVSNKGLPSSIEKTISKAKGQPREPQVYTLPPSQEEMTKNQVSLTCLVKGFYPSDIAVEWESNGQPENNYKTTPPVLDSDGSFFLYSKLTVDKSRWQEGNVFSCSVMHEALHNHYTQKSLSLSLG
light: EIVLTQSPATLSLSPGERATLSCRASQSISNHLHWYQQKPGQAPRLLIKYASQSISGIPARFSGSGSGTDFTLTISSLEPEDFAVYFCQQSNSWPLTFGGGTKVEIKRTVAAPSVFIFPPSDEQLKSGTASVVCLLNNFYPREAKVQWKVDNALQSGNSQESVTEQDSKDSTYSLSSTLTLSKADYEKHKVYACEVTHQGLSSPVTKSFNRGEC
notes: also called ELB01103; H7 IgG4 D12
